Reference: patent US20140242080A1 (Hoffmann-La Roche, published 2014)

Legend:
[1] = molecular target: T1, human MCSP expressed on tumor cells (Colo-38, WM266-4, A375, MV-3, HCT-116) (human, UniProt Q6UVK1 30-2322); test: cell-based or functional assay
[2] = molecular target: T2, human CD3 expressed on Jurkat cells (human, UniProt P07766 23-207); test: flow cytometry on Jurkat cells
T2 construct: CD3 complex on Jurkat T cells; also called CD3 on Jurkat cells; huCD3
Description: (§1) Binding of the different bispecific constructs to CD3 on Jurkat cells (ATCC #TIB-152), and the respective tumor antigen on target cells, was determined by FACS. Briefly, cells were harvested, counted and checked for viability. 0.15-0.2 million cells per well (in PBS containing 0.1% BSA; 90 μl) were plated in a round-bottom 96-well plate and incubated with the indicated concentration of the bispecific constructs and corresponding IgG controls (10 μl) for 30 min at 4° C. […] After the incubation, cells were centrifuged (5 min, 350×g), washed with 150 μl PBS containing 0.1% BSA, resuspended and incubated for further 30 min at 4° C. with 12 μl/well of a FITC- or PE-conjugated secondary antibody. Bound constructs were detected using a FACSCantoII (Software FACS Diva). The “(scFv)₂” molecule was detected using a FITC-conjugated anti-His antibody (Lucerna, #RHIS-45F-Z). For all other molecules, a FITC- or PE-conjugated AffiniPure F(ab′)2 Fragment goat anti-human IgG Fcγ Fragment Specific (Jackson Immuno Research Lab #109-096-098/working solution 1:20, or #109-116-170/working solution 1:80, respectively) was used. Cells were washed by addition of 120 μl/well PBS containing 0.1% BSA and centrifugation at 350×g for 5 min. A second washing step was performed with 150 μl/well PBS containing 0.1% BSA. […] EC50 values were calculated using the GraphPad Prism software.
As a control, the equivalent maximum concentration of the corresponding IgGs and the background staining due to the labeled 2ndary antibody (goat anti-human FITC-conjugated AffiniPure F(ab′)2 Fragment, FcγFragment-specific, Jackson Immuno Research Lab #109-096-098) were assessed as well.

[3] = molecular target: T1, human MCSP expressed on tumor cells …; test: flow cytometry on WM266-4 cells
Description: as §1

[4] = molecular target: T1, human MCSP expressed on tumor cells …; test: cell-based or functional assay; remark: listed apart in the source
[5] = molecular target: T1, human MCSP expressed on tumor cells …; test: flow cytometry on Colo-38 cells, 50 nM
Description: as §1
(§2) In a first experiment, different bispecific constructs targeting human MCSP and human CD3 were analyzed by flow cytometry for binding to human CD3 expressed on Jurkat, human T cell leukaemia cells, or to human MCSP on Colo-38 human melanoma cells.

[6] = molecular target: T2, human CD3 expressed on Jurkat cells; test: flow cytometry on Jurkat cells, 50 nM
Description: as §1, §2

T2 sequence (P07766 23-207 limits assumed): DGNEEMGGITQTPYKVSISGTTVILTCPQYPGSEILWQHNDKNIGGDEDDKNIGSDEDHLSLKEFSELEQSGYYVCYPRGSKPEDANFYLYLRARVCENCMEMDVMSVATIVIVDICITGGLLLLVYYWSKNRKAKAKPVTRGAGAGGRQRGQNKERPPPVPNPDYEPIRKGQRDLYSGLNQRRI
T1 sequence (Q6UVK1 30-2322): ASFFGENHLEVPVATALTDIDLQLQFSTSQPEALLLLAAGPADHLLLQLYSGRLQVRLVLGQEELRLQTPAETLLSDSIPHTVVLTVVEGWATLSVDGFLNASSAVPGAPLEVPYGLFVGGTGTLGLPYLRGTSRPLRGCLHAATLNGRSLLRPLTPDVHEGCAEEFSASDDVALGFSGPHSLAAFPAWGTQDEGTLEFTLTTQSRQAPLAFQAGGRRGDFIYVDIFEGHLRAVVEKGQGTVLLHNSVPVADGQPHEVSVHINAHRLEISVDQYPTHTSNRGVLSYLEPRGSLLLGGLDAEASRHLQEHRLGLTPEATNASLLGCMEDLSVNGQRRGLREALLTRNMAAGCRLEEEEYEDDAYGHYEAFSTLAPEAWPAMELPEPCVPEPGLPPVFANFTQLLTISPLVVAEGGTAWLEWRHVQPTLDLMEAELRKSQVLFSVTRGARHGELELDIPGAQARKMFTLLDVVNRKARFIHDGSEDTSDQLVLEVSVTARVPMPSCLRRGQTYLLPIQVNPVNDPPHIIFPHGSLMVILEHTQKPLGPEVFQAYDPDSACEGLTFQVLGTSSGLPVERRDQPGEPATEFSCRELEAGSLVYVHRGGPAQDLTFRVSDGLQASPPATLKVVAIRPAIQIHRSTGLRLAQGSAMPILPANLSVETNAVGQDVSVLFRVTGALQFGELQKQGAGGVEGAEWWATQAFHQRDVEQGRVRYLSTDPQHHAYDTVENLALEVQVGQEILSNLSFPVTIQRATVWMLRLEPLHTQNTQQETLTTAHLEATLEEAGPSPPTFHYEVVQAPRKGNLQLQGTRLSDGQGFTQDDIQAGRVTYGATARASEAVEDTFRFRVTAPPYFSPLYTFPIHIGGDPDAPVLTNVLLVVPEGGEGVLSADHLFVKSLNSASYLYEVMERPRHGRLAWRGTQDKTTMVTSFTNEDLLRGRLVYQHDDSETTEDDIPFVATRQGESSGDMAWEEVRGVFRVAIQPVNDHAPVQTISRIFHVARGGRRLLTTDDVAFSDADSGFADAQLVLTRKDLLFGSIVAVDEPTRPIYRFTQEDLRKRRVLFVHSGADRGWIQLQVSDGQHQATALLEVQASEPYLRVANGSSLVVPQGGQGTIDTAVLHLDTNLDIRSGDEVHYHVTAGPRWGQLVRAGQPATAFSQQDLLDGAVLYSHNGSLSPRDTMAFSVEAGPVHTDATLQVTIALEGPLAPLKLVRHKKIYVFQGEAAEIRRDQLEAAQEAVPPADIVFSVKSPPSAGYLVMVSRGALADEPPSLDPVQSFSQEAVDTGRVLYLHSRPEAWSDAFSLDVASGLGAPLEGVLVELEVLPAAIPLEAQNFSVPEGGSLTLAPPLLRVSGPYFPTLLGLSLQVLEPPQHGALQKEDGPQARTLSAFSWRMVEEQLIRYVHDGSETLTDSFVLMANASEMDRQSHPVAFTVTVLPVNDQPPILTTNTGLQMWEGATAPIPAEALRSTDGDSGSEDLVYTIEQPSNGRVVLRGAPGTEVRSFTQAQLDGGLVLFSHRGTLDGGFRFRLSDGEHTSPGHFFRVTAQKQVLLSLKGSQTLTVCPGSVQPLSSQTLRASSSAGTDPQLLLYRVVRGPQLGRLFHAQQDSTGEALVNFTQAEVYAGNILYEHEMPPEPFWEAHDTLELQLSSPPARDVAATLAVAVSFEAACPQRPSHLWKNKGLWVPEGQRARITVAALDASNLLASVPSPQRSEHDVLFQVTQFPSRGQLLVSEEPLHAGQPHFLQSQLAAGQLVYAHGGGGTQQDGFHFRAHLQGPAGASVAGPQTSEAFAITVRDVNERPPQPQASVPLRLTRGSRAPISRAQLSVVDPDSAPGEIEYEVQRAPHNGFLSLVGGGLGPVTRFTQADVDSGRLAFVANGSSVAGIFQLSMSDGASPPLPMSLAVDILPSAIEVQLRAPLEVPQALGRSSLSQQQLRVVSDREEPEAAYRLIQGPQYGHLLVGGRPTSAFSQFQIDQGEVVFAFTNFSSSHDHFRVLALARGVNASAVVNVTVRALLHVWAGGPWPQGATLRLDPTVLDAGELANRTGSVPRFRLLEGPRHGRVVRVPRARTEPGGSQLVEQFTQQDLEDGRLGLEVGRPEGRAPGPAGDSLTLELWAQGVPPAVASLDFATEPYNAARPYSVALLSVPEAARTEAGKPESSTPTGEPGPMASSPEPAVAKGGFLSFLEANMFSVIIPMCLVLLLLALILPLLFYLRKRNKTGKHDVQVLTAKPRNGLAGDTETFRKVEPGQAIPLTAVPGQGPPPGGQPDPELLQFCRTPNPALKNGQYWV

Binder | EC50 of T cell-mediated killing (LDH release), MV-3 cells, human PBMCs E:T 10:1, 21 h [1] | EC50 of T cell-mediated killing (LDH release), WM266-4 cells, human PBMCs E:T 10:1, 21 h [1] | EC50 [2] | EC50 [3] | EC50 [pM] of T cell-mediated killing (LDH release), MV-3 cells, human PBMCs E:T 10:1, about 24 h [4] | EC50 [pM] of T cell-mediated killing (LDH release), WM266-4 cells, human PBMCs E:T 10:1, about 24 h [4] | binding result [5] | binding result [6]
2 + 1 IgG Crossfab; VH/VL exchange (LC007/V9) (anti-MCSP/anti-huCD3) (bispecific antibody, vectors second heavy chain:light chain:first heavy chain-heavy chain Crossfab:light chain Crossfab 1:2:1:1; also called 2+1 IgG Crossfab (V9)) chain 1: not shown chain 2: DIVLTQSPSSLSASLGDRVTISCSASQGIRNYLNWYQQRPDGTVKLLIYYTSSLHSGVPSRFSGSGSGTDYSLTISNLEPEDIATYYCQQYSKLPWTFGGGTKLEIKRTVAAPSVFIFPPSDEQLKSGTASVVCLLNNFYPREAKVQWKVDNALQSGNSQESVTEQDSKDSTYSLSSTLTLSKADYEKHKVYACEVTHQGLSSPVTKSFNRGEC chain 3: DIQMTQSPSSLSASVGDRVTITCRASQDIRNYLNWYQQKPGKAPKLLIYYTSRLESGVPSRFSGSGSGTDYTLTISSLQPEDFATYYCQQGNTLPWTFGQGTKVEIKSSASTKGPSVFPLAPSSKSTSGGTAALGCLVKDYFPEPVTVSWNSGALTSGVHTFPAVLQSSGLYSLSSVVTVPSSSLGTQTYICNVNHKPSNTKVDKKVEPKSCGGGGSGGGGSEVQLQESGPGLVKPSQSLSLTCSVTGYSITSGYYWNWIRQFPGNKLEWMGYITYDGSNNYNPSLKNRISITRDTSKNQFFLKLNSVTTEDTATYYCADFDYWGQGTTLTVSSASTKGPSVFPLAPSSKSTSGGTAALGCLVKDYFPEPVTVSWNSGALTSGVHTFPAVLQSSGLYSLSSVVTVPSSSLGTQTYICNVNHKPSNTKVDKKVEPKSCDKTHTCPPCPAPEAAGGPSVFLFPPKPKDTLMISRTPEVTCVVVDVSHEDPEVKFNWYVDGVEVHNAKTKPREEQYNSTYRVVSVLTVLHQDWLNGKEYKCKVSNKALGAPIEKTISKAKGQPREPQVCTLPPSRDELTKNQVSLSCAVKGFYPSDIAVEWESNGQPENNYKTTPPVLDSDGSFFLVSKLTVDKSRWQQGNVFSCSVMHEALHNHYTQKSLSLSPGK chain 4: EVQLVESGGGLVQPGGSLRLSCAASGYSFTGYTMNWVRQAPGKGLEWVALINPYKGVSTYNQKFKDRFTISVDKSKNTAYLQMNSLRAEDTAVYYCARSGYYGDSDWYFDVWGQGTLVTVSSASVAAPSVFIFPPSDEQLKSGTASVVCLLNNFYPREAKVQWKVDNALQSGNSQESVTEQDSKDSTYSLSSTLTLSKADYEKHKVYACEVTHQGLSSPVTKSFNRGEC | 0.0092 nM | 0.0331 nM | 1.66 nM | 0.95 nM | 10 pM | 12.4 pM |  | 
“1+1 IgG scFab, one armed” (anti-MCSP/anti-huCD3) (bispecific antibody) chain 1: not shown chain 2: not shown chain 3: DIVLTQSPSSLSASLGDRVTISCSASQGIRNYLNWYQQRPDGTVKLLIYYTSSLHSGVPSRFSGSGSGTDYSLTISNLEPEDIATYYCQQYSKLPWTFGGGTKLEIKRTVAAPSVFIFPPSDEQLKSGTASVVCLLNNFYPREAKVQWKVDNALQSGNSQESVTEQDSKDSTYSLSSTLTLSKADYEKHKVYACEVTHQGLSSPVTKSFNRGEC |  |  |  |  |  |  | binds | binds
2 + 1 IgG Crossfab, inverted; CL/CH1 exchange (LC007/V9) (anti-MCSP/anti-huCD3) (bispecific antibody, also called 2+1 IgG Crossfab, inverted (V9)) chain 1: DIVLTQSPSSLSASLGDRVTISCSASQGIRNYLNWYQQRPDGTVKLLIYYTSSLHSGVPSRFSGSGSGTDYSLTISNLEPEDIATYYCQQYSKLPWTFGGGTKLEIKRTVAAPSVFIFPPSDEQLKSGTASVVCLLNNFYPREAKVQWKVDNALQSGNSQESVTEQDSKDSTYSLSSTLTLSKADYEKHKVYACEVTHQGLSSPVTKSFNRGEC chain 2: EVQLQESGPGLVKPSQSLSLTCSVTGYSITSGYYWNWIRQFPGNKLEWMGYITYDGSNNYNPSLKNRISITRDTSKNQFFLKLNSVTTEDTATYYCADFDYWGQGTTLTVSSASTKGPSVFPLAPSSKSTSGGTAALGCLVKDYFPEPVTVSWNSGALTSGVHTFPAVLQSSGLYSLSSVVTVPSSSLGTQTYICNVNHKPSNTKVDKKVEPKSCDKTHTCPPCPAPEAAGGPSVFLFPPKPKDTLMISRTPEVTCVVVDVSHEDPEVKFNWYVDGVEVHNAKTKPREEQYNSTYRVVSVLTVLHQDWLNGKEYKCKVSNKALGAPIEKTISKAKGQPREPQVCTLPPSRDELTKNQVSLSCAVKGFYPSDIAVEWESNGQPENNYKTTPPVLDSDGSFFLVSKLTVDKSRWQQGNVFSCSVMHEALHNHYTQKSLSLSPGK chain 3: DIQMTQSPSSLSASVGDRVTITCRASQDIRNYLNWYQQKPGKAPKLLIYYTSRLESGVPSRFSGSGSGTDYTLTISSLQPEDFATYYCQQGNTLPWTFGQGTKVEIKSSASTKGPSVFPLAPSSKSTSGGTAALGCLVKDYFPEPVTVSWNSGALTSGVHTFPAVLQSSGLYSLSSVVTVPSSSLGTQTYICNVNHKPSNTKVDKKVEPKSC chain 4: not shown |  |  | 6.1 nM | 0.57 nM | 4.1 pM | 3.7 pM |  | 
2 + 1 IgG Crossfab; CL/CH1 exchange (LC007/anti-CD3) (anti-MCSP/anti-huCD3) (bispecific antibody, also called 2+1 IgG Crossfab (anti-CD3)) chain 1: DIVLTQSPSSLSASLGDRVTISCSASQGIRNYLNWYQQRPDGTVKLLIYYTSSLHSGVPSRFSGSGSGTDYSLTISNLEPEDIATYYCQQYSKLPWTFGGGTKLEIKRTVAAPSVFIFPPSDEQLKSGTASVVCLLNNFYPREAKVQWKVDNALQSGNSQESVTEQDSKDSTYSLSSTLTLSKADYEKHKVYACEVTHQGLSSPVTKSFNRGEC chain 2: EVQLQESGPGLVKPSQSLSLTCSVTGYSITSGYYWNWIRQFPGNKLEWMGYITYDGSNNYNPSLKNRISITRDTSKNQFFLKLNSVTTEDTATYYCADFDYWGQGTTLTVSSASTKGPSVFPLAPSSKSTSGGTAALGCLVKDYFPEPVTVSWNSGALTSGVHTFPAVLQSSGLYSLSSVVTVPSSSLGTQTYICNVNHKPSNTKVDKKVEPKSCDKTHTCPPCPAPEAAGGPSVFLFPPKPKDTLMISRTPEVTCVVVDVSHEDPEVKFNWYVDGVEVHNAKTKPREEQYNSTYRVVSVLTVLHQDWLNGKEYKCKVSNKALGAPIEKTISKAKGQPREPQVCTLPPSRDELTKNQVSLSCAVKGFYPSDIAVEWESNGQPENNYKTTPPVLDSDGSFFLVSKLTVDKSRWQQGNVFSCSVMHEALHNHYTQKSLSLSPGK chain 3: QAVVTQESALTTSPGETVTLTCRSSTGAVTTSNYANWVQEKPDHLFTGLIGGTNKRAPGVPARFSGSLIGDKAALTITGAQTEDEAIYFCALWYSNLWVFGGGTKLTVLSSASTKGPSVFPLAPSSKSTSGGTAALGCLVKDYFPEPVTVSWNSGALTSGVHTFPAVLQSSGLYSLSSVVTVPSSSLGTQTYICNVNHKPSNTKVDKKVEPKSC chain 4: not shown |  |  | 10.3 nM | 3.1 nM | 11 pM | 11.3 pM |  | 
2 + 1 IgG Crossfab, inverted; CL/CH1 exchange (LC007/anti-CD3) (anti-MCSP/anti-huCD3) (bispecific antibody, also called 2+1 IgG Crossfab, inverted (anti-CD3)) chain 1: DIVLTQSPSSLSASLGDRVTISCSASQGIRNYLNWYQQRPDGTVKLLIYYTSSLHSGVPSRFSGSGSGTDYSLTISNLEPEDIATYYCQQYSKLPWTFGGGTKLEIKRTVAAPSVFIFPPSDEQLKSGTASVVCLLNNFYPREAKVQWKVDNALQSGNSQESVTEQDSKDSTYSLSSTLTLSKADYEKHKVYACEVTHQGLSSPVTKSFNRGEC chain 2: EVQLQESGPGLVKPSQSLSLTCSVTGYSITSGYYWNWIRQFPGNKLEWMGYITYDGSNNYNPSLKNRISITRDTSKNQFFLKLNSVTTEDTATYYCADFDYWGQGTTLTVSSASTKGPSVFPLAPSSKSTSGGTAALGCLVKDYFPEPVTVSWNSGALTSGVHTFPAVLQSSGLYSLSSVVTVPSSSLGTQTYICNVNHKPSNTKVDKKVEPKSCDKTHTCPPCPAPEAAGGPSVFLFPPKPKDTLMISRTPEVTCVVVDVSHEDPEVKFNWYVDGVEVHNAKTKPREEQYNSTYRVVSVLTVLHQDWLNGKEYKCKVSNKALGAPIEKTISKAKGQPREPQVCTLPPSRDELTKNQVSLSCAVKGFYPSDIAVEWESNGQPENNYKTTPPVLDSDGSFFLVSKLTVDKSRWQQGNVFSCSVMHEALHNHYTQKSLSLSPGK chain 3: QAVVTQESALTTSPGETVTLTCRSSTGAVTTSNYANWVQEKPDHLFTGLIGGTNKRAPGVPARFSGSLIGDKAALTITGAQTEDEAIYFCALWYSNLWVFGGGTKLTVLSSASTKGPSVFPLAPSSKSTSGGTAALGCLVKDYFPEPVTVSWNSGALTSGVHTFPAVLQSSGLYSLSSVVTVPSSSLGTQTYICNVNHKPSNTKVDKKVEPKSC chain 4: not shown |  |  | 32 nM | 3.4 nM | 3 pM | 7.1 pM |  | 
